Data reported in patent publication US20220356228A1 (ICAHN SCHOOL OF MEDICINE AT MOUNT SINAI, published 2022).
Where a chain is given by its changes, count along the chain named.

B1: 1F11 (antibody, V domains shown)
VH: QVQLVESGGGLVKPGGSLRLSCAASGFTFSDLYMSWIRQAPGKGLEWVSYISTSGRTIYYADSVKGRFTISRDNAKNSLYLQMNSLRAEDTAVYYCAGDYYDNSGWDYWGRGTLVTVSS
VL: not shown
B2: 1E8 (antibody, V domains shown)
VH: B1 VH with L32H, R56S, G98S, D107N, R111Q
VL: DVVMTQSPLSLPVTLGQPASISCRSSQSLVYSDGNTYLNWFQQRPGQSPRRLIYKVSDRDSGVPDRFSGSGSGTDFTLRISRVEAEDVGVYYCMQGSHWPRTFGQGTKVEIK
B3: 1A3 (antibody, V domains shown)
VH: B1 VH with G26E, F27I, L32Y, V48I, Y60F, E89D, G98S, Y100F, D107E, R111Q
VL: B2 VL with P12S, R79K, V83A, S97T
B4: 2A11 (antibody, V domains shown)
VH: B1 VH with L32H, A61V, T91M, G98S, S104V, D107N, R111Q, T113A
VL: B2 VL with M4L, S61F, R79K, V90I, S97T
B5: 1E12 (antibody, V domains shown)
VH: B1 VH with A23T, L32H, S54G, G98S, S104V, R111Q
VL: B2 VL with M4L, V30I, R79K, S97T
B6: 3D2 (antibody, V domains shown)
VH: QVQLQQWGAGLLKPSETLSLTCAVFGGSFSSYYWSWIRHPPGKGLEWIGDINHSGSTNYNPSLKSRVTLSVDTSKNQFSLKVTSVTAADTAVYYCARWGIAADYGMDVWGQGTTVTVSS
VL: EIVLTQSPGTLSLSPGERATLSCRASQSVSSSYLAWYQQKPGQAPRLLIYGASSRATGIPDRFSDSGSGTDFTLTISRLEPEDFALYYCQQYGTSPWTFGQGTKVEIK
B7: 1A7 (antibody, V domains shown)
VH: QVQLVQSGAEVKKPGASVKVSCKASGYTFTFYDINWVRQATGQGLEWMGWMNPNSGNTGYAQNFQGRVTMTRNTSINTAYLELSSLRSEDTAVYYCARKIWVGHTTFDRWGQGTLVTVSS
VL: AIQMTQSPSSLSASVGDRVTITCRASQSISGYLNWYQQKPGKAPNLLIYAASNLQSGVPSRFSGSGSGTDFTLTISSLQREDFAPYYCQQTYNIPFTFGGGTKVEIK

Columns and labels:
[1] = target: T1, JCV major capsid protein VP1, wild type (John Cunningham virus (JCV), UniProt P03089 1-354); assay: cell-based or functional assay
[2] = target: T2, JCV VP1 mutant L55F (John Cunningham virus (JCV), UniProt P03089 1-354); assay: cell-based or functional assay
[3] = target: T3, JCV VP1 mutant S269F (John Cunningham virus (JCV), UniProt P03089 1-354); assay: cell-based or functional assay
[4] = target: T1, JCV major capsid protein VP1, wild type; assay: ELISA, plates coated with pseudovirus, purified antibody
[5] = target: T2, JCV VP1 mutant L55F; assay: as above
[6] = target: T3, JCV VP1 mutant S269F; assay: as above

| Binder | Neutralization of wild type JCV, EC50 [pM] [1] | Neutralization of JCV L55F: EC50 [pM] [2] | Neutralization of JCV S269F: EC50 [pM] [3] | AB conc. (lowest concentration of antibody that gave a clear signal above background) [4] | EC50 [4] | AB conc. (lowest concentration of antibody that gave a clear signal above background) [5] | EC50 [5] | AB conc. (lowest concentration of antibody that gave a clear signal above background) [6] | EC50 [6] | binding result [5] |
| --- | --- | --- | --- | --- | --- | --- | --- | --- | --- | --- |
| B1 | 111 pM | 76 pM | 53 pM | < 7.4 ng/mL | 9.4 ng/mL | < 7.4 ng/mL | 14.3 ng/mL | < 2.5 ng/mL | 7.6 ng/mL |  |
| B2 | 127 pM | 3380 pM | 55.3 pM | < 2.5 ng/mL | 8 ng/mL | < 22 ng/mL | 46.5 ng/mL | < 2.5 ng/mL | 22 ng/mL |  |
| B3 | 301 pM | 6600 pM | 37.3 pM | < 2.5 ng/mL | 7.1 ng/mL | < 2.5 ng/mL | 14.3 ng/mL | < 2.5 ng/mL | 8 ng/mL |  |
| B4 | 146 pM | 45.5 pM | 250 pM | < 7.4 ng/mL | 7.4 ng/mL | < 7.4 ng/mL | 13.6 ng/mL | < 2.5 ng/mL | 6.8 ng/mL |  |
| B5 | 16 pM | 56.7 pM | 105 pM | < 7.4 ng/mL | 8.4 ng/mL | < 2.5 ng/mL | 7.7 ng/mL | < 7.4 ng/mL | 8.5 ng/mL |  |
| B6 | 2250 pM |  | 733 pM | < 67 ng/mL | 393 ng/mL |  |  | < 22 ng/mL | 121 ng/mL | no binding (tested: 2.5 ng/ml to 200 ng/ml) |
| B7 | 180 pM |  | 7 pM | < 22 ng/mL | 24.7 ng/mL |  |  | < 2.5 ng/mL | 7.4 ng/mL | no binding (tested: 2.5 ng/ml to 200 ng/ml) |
